{"source": "a protein production outcome set (Wang et al. 2014)", "assay": "label from the status in PepcDB records", "data": [{"sequence": "MANQLDASVKDDLKTQFVTREGTYRLLTLSEYSRPNRVGYSSNQSSPQVRVSMVTLPSPAQGKLGSDVGVGTPVGGGTAGANTTTTNGSSPGASPTGAAGASTAISNGGAGGDYSHSNHNSNSAGNNTVEARLGGGISMHSMMNGGVVDQNGVATNQVLGGDRICFNFGRDLYVYSFRGAKKGTEMSKPIDKKFYKGTNPSCHDFNISSATPTGAPLLVGFTTGQIQLVSPHVGPREVRKLFNEERLIDKTKVTCLKWLPNSPHLFLAAHASGHLYLYNEELPCAATAPSYQPFKLGDGYTILTSKSKTTRNPLFKWVFSTDNCCVNEFCFSPCGSHLAVVSQDGFLRVFHYDTMELLGIARSYFGGFLCVCWSPDGKYIVVGGEDDLVTVWSLHERRVVARGQGHRSWVSVVAFDPYTTSYTNWDGGDFSDDENQMNEYSHSREARFSGDSTANGGFEGFDRNSTPVHADRNGPHSASFRSDASSAEKLMSYRLGSVSQDTQICLWDITEDVLRHPLVLRQPANSERAYLNGGVDEEAEAEDGIKVIRPVAMSGQATGQQAESGSCSPTREAAGGGTGNGAGEHSNSSSSKFSTANCTISSQSSPDDCDTEAATPASTSSNAGAGSVAGAGAVASTKQNNRNHGTGNSIKFPNCISATKSDSIDGGGGSGSGQRPSQTTSGYNSKTSNSSNKSSNSGSGFSAFNSLTQRLSNFSFLSSSEKKGAGYEGSHSTAHRQHRKAMSMLKSYNQHNHTGGHNNHSQSNNSSSSNFGHSSTLDSNAAGAIGSSSTAHSFGSLKLSRSSHHSSLATAAHASGSAAGSGSGVSSFDPMQLIGTPACPRFDECPLLEPLVCKKIAHERLTALIFREDCFLTACQDGFIYTWARPGHATHATQHLSPGQAAAPGGTVI", "values": [{"measurement": "protein production", "value": "failed"}]}, {"sequence": "MKDFWTWERLSFHMVLAYNDDRSFLINTGMPLDLTLRNQEMKKFAGDRAIFRSEDSIEMLRKAGFTPDDIDYVALTPVQDYTIGRLNEFRKSKIFIFRDGWIKDIAAPAYAYFHNRDLFIPKNIFDFVYGEGWKNIIFYDGETELVPGIRAIPVGCHHRSSVAFAINAKDGTYVFTDASFKAENVRNRIPIGIAENIYECLSAYEKIEKIGKLLPAYDPAIDDLYIKLEHHHHHH", "values": [{"measurement": "protein production", "value": "not failed"}]}, {"sequence": "MIIEYNKLGTILYSRISHKQLYNIFHYSYHEVRLLVYNKYLPIPKQFNDEFWTVEKVEHIRYLSLTGKPYKIFNEDMNSLRVLDKVRFKLDKATSISLTPKANLELEFSGIYMKSPLYLGDMSYGALSGNPNIAIATAADLTETLAGTGEGGLHPEVAKHKRIFVQWASARFGVDIRVLTAGMGVVIKIGQGAKPGIGGHLPGNKVTEPISLTRRIPIGIDAISPAPHHDIYSIEDLGQRIEALKEATGRPVFVKVAATNYIPYIVSGIARMGADGVIIDGHGAGTGATPVVIRDNVGIPIELAIASADKILRREGLRDKFTIIAAGRVSSATDAAKLFALGADIVSVGTGALIAMGCVMVHKCHVGSCPTGLTAKIDGTRVVDTEFGVKMLVNFINGFSLELANILDNLGLNNIRELRGRRDLLYGHGLSKDTLETLGIDGTEDEANPKLGELWNRRIIAYMHELMNKGNPVITSMGSTAPPDVEKPARIIDWLRSDGAQVTRPSIDPYREDVDTSFYLKGGEIYLSLPIIFDITEAPLEYKEAFSWSALALSSAVFDYETIDKYAEVFISSDGRGIARWSRNEIYENSYLLIPADENVIDEVIGMGVQGFIIDEDSGNSDLELVVSALDTKLKEVGVRNHYDILAKSSRLRHSADAFKLILLGADSVIMPYFILEKAIGEGNKGNLKEKAFSLITGMKKEIALLAGAAGVYSVQSTLTGNRELLRSINLNHSIRKALRIKPAGSL", "values": [{"measurement": "protein production", "value": "failed"}]}, {"sequence": "SDIGQVIHPDDFDKAAADDYVLHEDGEKIYFLIKSKTDEYCFTNLALVHLDGESAVSSKRVLYRYPYAHYPIRHVMFETAGTVDLDVEIKFEIGGKHYSIDVDKKQLEHVKDLYKALLAIAEKQYEGQKMLEFANSSLNHSVTILGGLRQGDMNVPQTFKDLSQESFDWLQGHYYKWNQKDFGSFYEKYINN", "values": [{"measurement": "protein production", "value": "not failed"}]}, {"sequence": "MGYGKILVALDRSELAKEVLQQAIALGQKESSQLMVFYCIPVDSQDLSIYPSFYGEAAIGFSQIIKEHLEEQQTEAREWLQSIVQQVQEDGVACEWDVKVGEPGRWIRDMAKNWDADLVVLGRRGLKGLAEVFLGSVSSYVIHHVQCSVLIVQH", "values": [{"measurement": "protein production", "value": "failed"}]}, {"sequence": "MAKHAILVIDMLNDFVGEKAPLRCPGGETIIPDLQKIFEWVRGREGDDIHLVHIQEAHRKNDADFRVRPLHAVKGTWGSDFIPELYPQEDEYIVQKRRHSGFAHTDLDLYLKEEGIDTVVLTGVWTNVCVRSTATDALANAYKVITLSDGTASKTEEMHEYGLNDLSIFTKVMTVDQYIQAWENDEDPWVGGGDAQNKVK", "values": [{"measurement": "protein production", "value": "not failed"}]}, {"sequence": "MTWQPFYVGTGQAPAGAEEQVVLPPAPPWREFPRRSQHRQFVPPPRLAEAVNAALALRRPLLVTGPAGSGKSTVIEQVAAELALGDVLRWHITSRSSLAEALYRYDALGRIHAQRLEGPGGSDDIAPFLRMGPLGTALLPSARPRALLIDEIDKSDLDLPSDLLDVLERGEFEIPELARYGTDVVPVREHGGERTHLIARGRVQCAEFPFIVMTSNGDRDFPAAFLRRCIRFTMPLPTPETLLRVVEAHMGPEKAAADETGRLITVFLERLTAGESLAVDQLLNAVHLLTGDGAPGDDRRQAIAELILRELSHALEHHHHHH", "values": [{"measurement": "protein production", "value": "failed"}]}, {"sequence": "MPVCARAAAATGAAGHRSHLPEVTFCLRTIAERLHGGQHRRMNSSFCHLLHPLRLAAAFTIAAVALSFMPDASAHGAWRWGALAGFTALFVLHTVLPQTHALRTVATLLQAVLALLLVWIEPRAGTAPVLLVMLVAQAGMTWPPLRVLLLALALNAGMYAVLVHAGFDRALLIVSIYAGFQAFAALTAHYARSAERARDALAYVNADLLATRALLADSARDAERLRLARELHDVAGHKLTAMRINLRLLSADPALAQRDEVAVVEQLSAELLSDIRNVVQSLRDDQGLDLQTALRALAAPFPRPTLRLQIDADVRVTDARVAELLLRLVQEALTNAVRHADADEVAVHLHCEGAQLHVDICDDGRRAERIREGNGITGMRERLAALHGQLDLGRTPTGGMHLIARLPV", "values": [{"measurement": "protein production", "value": "failed"}]}, {"sequence": "MRYADRVAGISWETIEEVRRRLKERPALHFIAGEFVPSESGETFPSLDPATNEVLGVAARGGEREVDRAAKAAHEAFQRWSRTKAKERKRYLLRIAELIEKHADELAVMECLDAGQVLRIVRAQVARAAENFAFYAEYAEHAMEDRTFPVDRDWLYYTVRVPAGPVGIITPWNAPLMLSTWRIAPALAFGNTVVLKPAEWSPFTATKLAEILKEADLPPGVFNLVQGFGEEAGAALVAHPLVPLLTLTGETETGKIVMRNAADHLKRLSPELGGKSPALVFADADLERALDAVVFQIFSFNGERCTASSRLLVEEKIFEDFVGKVVERARAIRVGHPLDPETEVGPLIHPEHLQRVLGYVEAGKREGARLLVGGERAKTSFRGEDLSRGNYLLPTVFVGENHMKIAQEEIFGPVLVAIPFKDEEEALRKANDTKYGLAAYVFTRDLERAHRLALELEAGMVYLNSHNVRHLPTPFGGVKGSGDRREGGTYALDFYTDLKTIALPLRPPHVPKFGK", "values": [{"measurement": "protein production", "value": "not failed"}]}, {"sequence": "MTEITGGTLVLVGADHPVAHLDVTAFEASVTHDVMAASVAGTGLGVSTATAAGLSHLVVDAGVAQPVQGARSVRIRGERGDLRHADAMTPVQVEALLRDGQALGAEASHDGLVCLGEVGVGNTTIATALACAMTGLGPDEAVGLGAGSDTAMVERKAEIIKAALTRTHTDPNDPERLLAALGGPEFAVLAGVCLGAAEAGSPVVLDGLATSVAALIATKFSPGLHGWLVASQASREQVHHIVLAELGLEALMELRMRAGLEHHHHHH", "values": [{"measurement": "protein production", "value": "failed"}]}, {"sequence": "MAKWRLATATLRRQLQSSSPTISTFKNPTKALSAAAHQSTRSYSTTQTDDSRGKWLTLPPFSPTIDGTAVGKDLLSDGDSVKSSTDNSKTTALRWILRCRPDLPRTLVQKLFRLRQVRREMSMSVDGDELQRSQLKRVAAKESLNVGDRIYLPLSVDNDTPQTPPAKKESFQCSDEERKFVCSLVLYKDPAIIVLNKPHGLAVQGGSGIKTSIDELAASCLKFDKSESPRLVHRLDRDCSGLLVLARTQTAATVLHSIFREKTTGASAYGVKKNVKSLKRKYMALVIGCPPRQRGQISAPLRKVVVDDGKSERITVNDNGELVSTQHAITEYRVIESSPHGYTWLELRPLTGRKHQLRVHCAEVLGTPIVGDYKYGWQAHKAREPFVSSENNPTKQSSSPFGLDLDGGDVSSKQPHLHLHSKQIDLPNISQLLEKMQVSSDSDISDLDSLKFDAPLPSHMQLSFNLLKSRVETCDKN", "values": [{"measurement": "protein production", "value": "failed"}]}, {"sequence": "MVMPVKKVEKNILVLHGADKMFELVDKVEDYPHFLPWYSKTEVIGRSGNELKARLFMDYMHVRQSFATHNRNIPGREIRMELLEGPFKTLRGTWKFIDLGDDMCKIEFNLEYDFSNAVLSALISPVFNHLSVTLVEAFVKEADRRYA", "values": [{"measurement": "protein production", "value": "failed"}]}, {"sequence": "MGNNSESKGSASDSKGAETFTYKAENGNVKIPKHPKRVVVMADGYYGYFKTLGINVVGAPENVFKNPYYKGKTNGVENIGDGTSVEKVIDLNPDLIIVWTTQGADIKKLEKIAPTVAVKYDKLDNIEQLKEFAKMTGTEDKAEKWLAKWDKKVAAAKTKIKKAVGDKTISIMQTNGKDIYVFGKDFGRGGSIIYKDLGLQATKLTKEKAIDQGPGYTSISLEKLPDFAGDYIFAGPWQSGGDDGGVFESSIWKNLNAVKNGHVYKMDPIGFYFTDPISLEGQLEFITESLTKLEHHHHHH", "values": [{"measurement": "protein production", "value": "not failed"}]}, {"sequence": "MTRADCRSRLMEVATELFAQKGFYGVSIRELAQAAGASISMISYHFGGKEGLYAAVLQEQFACFGQLDDIRGQAGDPLAVMTAYLRWTIQRHRNNPQLLRFYTSELTNPTPCFAAIVSPAIASVIRLLAESIEAGMTRGLFRRDLHAVNSALALAGMVNYFFLSTLATEGLTSHSPDQDEELIRQYVAIFTRGIMADGGAAPA", "values": [{"measurement": "protein production", "value": "not failed"}]}, {"sequence": "MSENTKVEAKRVFIGAGCNRVVNNVSWGASGLVSFGAQNAVAVFCPKTAQILTTLPGHKASVNCTHWLPTSKFAFKAKKLDRQYLLSGDSDGIIILWELSTLNNDQQWRHVLQLPLSHKKGVTCITAYMVSETDAMFASASSDGVVNVWDVSFPSQPSEECKVVCLDSICVDTKAIVTLSLAELPQNPGRFALALGGLDNKIKLYSGERTGKFTSVCELKGHTDWIRSLDFSLPLHTTEEIPNSIMLVSSSQDKVIRIWKLVLVGDVGSWRREITLASYIEGPVFVSGTFTYQISVESVLIGHEDWVYSVEWQPPVIDFIDGRLVNHQPLSILSASMDKTMMIWRPEKKTGVWVNVVCVGELSHCALGFYGGHWSPNSLSILAHGYGGAFHLWRNVSSSKESENWQMQKVPSGHFAAVTDVTWARTGEYLLSVSQDQTTRVFSAWKNDEGNEAEDEHWHELARPQVHGHDINCVAMVQGKGNHRFVSGAEEKVVRVFEAPLSFLKTLNHTCAGGEGSFPEDLQADVQVLGANMSALGLSQKPIYLHSSSEPLERNGGGEGLDTFETVPEAAPAELKEPPIEDQLAFHTLWPESHKLYGHGNELFSLCSDHKGNLVASSCKAQSASMAEIWLWEVGTWKAVGRLQSHSLTVTHLEFSYDDTLLLSVSRDRHFSVFSIQRTDNGEVSHKLMAKVEAHKRIIWACSWNPFGHQFATSSRDKTVKIWSVENDARIKQILVLPPFGSSVTAVAWTGLDRNEKSGCVAVGMESGLIELSNVKIIETEEGTTATAALALRLEPFMCHVSAVNRLAWRPTEKCESNQSLRWLTSCGDDNCVRVFNFKF", "values": [{"measurement": "protein production", "value": "failed"}]}, {"sequence": "MIRHTVVFTLKHASHSLEEKRFLVDAKKILSAIRGVTHFEQLRQISPKIDYHFGFSMEFADQAAYTRYNDHPDHVAFVRDRWVPEVEKFLEIDYVPLGSVV", "values": [{"measurement": "protein production", "value": "not failed"}]}, {"sequence": "MGTSKYSPEFRADAVALYHASPGGTYASVAKDLGVNHETLRTWVRDAEQAGRPGAVEATAMDKENRQLRARVKELELEREILRRAAKYFAAETSWLEHHHHHH", "values": [{"measurement": "protein production", "value": "not failed"}]}, {"sequence": "MSEAPHLTFDLDTPGVSTGHLVVPKGADCEALSLPVFSCNRGEGPSLLITGGNHGNELQGPILARRLVKWLPEAQRCGRIIIVPEINPLAVQAWTRNTPIDGKNLNRVFPGRSDGSVSERIADAISRLLLPVVDTVLDLHSFGPTWDCAPSIISHPIADIDQMTKTVSISKAFKLPVTLLWEHNETDGMFDTLVHRQGKTFICTEFGGGVVSAEALTIYEAGVRNGLIALGLVKGKAEYPTFRQQKTGQTLETTSSDQLKSPSPGIFEPRCSVMDEVEQGDVVGVLHPMGSLSAASIDIRAQSKSTVFAIRSAMYVQGNEEVAILARPLAR", "values": [{"measurement": "protein production", "value": "not failed"}]}]}
